Data taken from article PMC3288308.
Like-named read-outs stand apart in the source and are kept apart here.

Key:
[1] = target: Treponema pallidum adhesin protein fragment rTp0483 (recombinant C-terminal portion of Tp0483) (Treponema pallidum); experiment: quartz crystal microbalance
[2] = target: Treponema pallidum adhesin protein fragment rTp0483 (recombinant C-terminal portion of Tp0483) (Treponema pallidum); experiment: SPR
[3] = target: Treponema pallidum adhesin protein fragment rTp0483 (recombinant C-terminal portion of Tp0483) (Treponema pallidum); experiment: quartz crystal microbalance; remark: listed apart in the source
[4] = target: Treponema pallidum adhesin protein fragment rTp0483 (recombinant C-terminal portion of Tp0483) (Treponema pallidum); experiment: quartz crystal microbalance; remark: listed apart in the source
[5] = target: Treponema pallidum adhesin protein fragment rTp0483 (recombinant C-terminal portion of Tp0483) (Treponema pallidum); experiment: quartz crystal microbalance; remark: listed apart in the source
[6] = target: Treponema pallidum adhesin protein fragment rTp0483 (recombinant C-terminal portion of Tp0483) (Treponema pallidum); experiment: SPR; remark: listed apart in the source
[7] = target: Treponema pallidum adhesin protein fragment rTp0483 (recombinant C-terminal portion of Tp0483) (Treponema pallidum); experiment: SPR; remark: listed apart in the source
[8] = target: Treponema pallidum adhesin protein fragment rTp0483 (recombinant C-terminal portion of Tp0483) (Treponema pallidum); experiment: SPR; remark: listed apart in the source
[9] = target: Human plasma fibronectin (human); experiment: SPR

Chain of Treponema pallidum adhesin protein fragment rTp0483 (recombinant C-terminal portion of Tp0483) (Treponema pallidum) (O83496 22-374): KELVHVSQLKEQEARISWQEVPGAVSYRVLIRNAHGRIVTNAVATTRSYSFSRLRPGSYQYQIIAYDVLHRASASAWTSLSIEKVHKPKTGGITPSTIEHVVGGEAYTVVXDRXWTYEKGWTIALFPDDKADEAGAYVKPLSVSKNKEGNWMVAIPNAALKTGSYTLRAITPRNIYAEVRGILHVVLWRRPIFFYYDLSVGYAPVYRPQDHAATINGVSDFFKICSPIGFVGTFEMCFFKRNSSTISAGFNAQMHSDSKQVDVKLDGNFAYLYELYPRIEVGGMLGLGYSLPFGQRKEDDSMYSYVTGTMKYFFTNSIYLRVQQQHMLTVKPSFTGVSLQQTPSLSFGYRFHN

Human plasma fibronectin (natural protein)
surface mass density of FN bound (QCM) [1]: 60 pg/mm^2 | KA2 (bivalent analyte model, reaction 2) [2]: 0.0225 1/RU | KD1 (inverse of KA1, reaction 1 of the bivalent analyte model) [2]: 0.65 nM | surface mass density of FN bound (QCM) [3]: 363 pg/mm^2 | surface mass density of FN bound (QCM) [4]: 3.5 pg/mm^2 | surface mass density of FN bound (QCM) [5]: 1380 pg/mm^2 | KA2 (bivalent analyte model, reaction 2) [6]: 0.0403 1/RU | KD1 (inverse of KA1, reaction 1 of the bivalent analyte model) [6]: 0.97 nM | KA1 (bivalent analyte model, reaction 1) [7]: 1.03e+09 M⁻¹ | KA2 (bivalent analyte model, reaction 2) [7]: 403 1/RU | surface mass density of FN bound (SPR) in the presence of anti-Tp0483#1 [7]: 373 pg/mm^2 | surface mass density of FN bound (SPR) in the presence of anti-Tp0483#2 [7]: 270 pg/mm^2 | surface mass density of FN bound (SPR), FN alone [7]: 282 pg/mm^2 | surface mass density of FN bound (SPR), FN preincubated with 20 µg/mL anti-RGD [7]: 91 pg/mm^2 | surface mass density of FN bound (SPR), FN preincubated with 50 µg/mL anti-RGD [7]: 47 pg/mm^2 | surface mass density of FN bound (SPR), no antibody [7]: 846 pg/mm^2 | KA1 (bivalent analyte model, reaction 1) [8]: 1.53e+09 M⁻¹ | KA2 (bivalent analyte model, reaction 2) [8]: 225 1/RU

Peptide D2, residues 316-333 of the complete Tp0483 sequence
% FN binding to rTp0483 with the peptide, of FN alone [9]: 88%

Type A gelatin
surface mass density of gelatin bound (SPR) on FN adsorbed on the SAM [9]: 940 pg/mm^2 | surface mass density of gelatin bound (SPR) on rTp0483+FN [9]: 211 pg/mm^2
